Results on one substance are retold here after publication PMC12234153.

In the test the target is STAT3 (UniProt P42227). The test is described as follows: anti-FLAG co-IP, anti-HA blot. The conditions noted are these: reference: wild type SMAD2-FLAG; sites S255.

On to SMAD2 (from UniProt Q15796) S255A, for which the “binding against the reference” value was “weaker”.
